These results are taken from article PMC5467213, “Architecture of the RNA polymerase II-Paf1C-TFIIS transcription elongation complex” (Nature Communications, 2017).

B2: Cdc73 (natural protein, S. cerevisiae, UniProt Q06697 1-393, looked up)
chain: MANSLDRLREHLKNGDKLVLKNNEGQSTDDITKATMVETLSSDGSTQDSFPLNEETEIEIDGSLVQLRIIVHCWMNKDSSAADYLADCQNKQLTNVSFLQRTDLINWLSGNTESSQYLKAPGQKGETSDKVDIENKTLAGELSTVKSTTSASLENDSEVSDPVVVETMKHERILVDHNSALRGAKPINFGYLIKDAELKLVQSIKGSLRGSKLPPGHKGAHGRISKTNGSSGGPRKDPIILIPSAASSILTVANIKQFLLESKYVNPRNLPSVPNGLVNIEKNFERISRPIRFIIVDNTRMFTKPEYWDRVVAIFTTGHTWQFNNYQWNSPQELFQRCKGYYFHFAGDSVPQHVQQWNVEKVELDKNKRFKDVEVVRYFWHSLEKELISRGYR
notes: Cdc73, S. cerevisiae, full length, amplified from genomic DNA; source: E. coli BL21 CodonPlus(DE3)RIL, coexpressed with the other subunits; in lysate and purified as part of Paf1C

The target in the assay “Cdc73” is B2. In words: cross-linking; Pol II-Paf1C-TFIIS EC after SEC, 425 μg/ml, 0.5 mM BS3, 30 min, 30 °C; trypsin, Orbitrap Fusion LC-MS/MS, pLink, FDR 1%. The conditions noted are these: both partners purified.
Another assay concerns the target T1, Rpb2 (Pol II subunit) (yeast, UniProt P08518 1-1224).
T1 construct: Rpb2, subunit of yeast Pol II; source: part of purified Pol II
Described as above. Particulars: both partners purified.

Another assay addresses T2, Ctr9-ΔC913 (S. cerevisiae, UniProt P89105 1-913).
T2 construct: Ctr9, S. cerevisiae, variant lacking 164 amino acids at its C terminus (Ctr9-ΔC913); also called Ctr9 (in the Pol II-Paf1C-TFIIS EC); source: E. coli BL21 CodonPlus(DE3)RIL, coexpressed with the other subunits; in lysate and purified as part of Paf1C-Ctr9-ΔC913
T2 sequence (looked up): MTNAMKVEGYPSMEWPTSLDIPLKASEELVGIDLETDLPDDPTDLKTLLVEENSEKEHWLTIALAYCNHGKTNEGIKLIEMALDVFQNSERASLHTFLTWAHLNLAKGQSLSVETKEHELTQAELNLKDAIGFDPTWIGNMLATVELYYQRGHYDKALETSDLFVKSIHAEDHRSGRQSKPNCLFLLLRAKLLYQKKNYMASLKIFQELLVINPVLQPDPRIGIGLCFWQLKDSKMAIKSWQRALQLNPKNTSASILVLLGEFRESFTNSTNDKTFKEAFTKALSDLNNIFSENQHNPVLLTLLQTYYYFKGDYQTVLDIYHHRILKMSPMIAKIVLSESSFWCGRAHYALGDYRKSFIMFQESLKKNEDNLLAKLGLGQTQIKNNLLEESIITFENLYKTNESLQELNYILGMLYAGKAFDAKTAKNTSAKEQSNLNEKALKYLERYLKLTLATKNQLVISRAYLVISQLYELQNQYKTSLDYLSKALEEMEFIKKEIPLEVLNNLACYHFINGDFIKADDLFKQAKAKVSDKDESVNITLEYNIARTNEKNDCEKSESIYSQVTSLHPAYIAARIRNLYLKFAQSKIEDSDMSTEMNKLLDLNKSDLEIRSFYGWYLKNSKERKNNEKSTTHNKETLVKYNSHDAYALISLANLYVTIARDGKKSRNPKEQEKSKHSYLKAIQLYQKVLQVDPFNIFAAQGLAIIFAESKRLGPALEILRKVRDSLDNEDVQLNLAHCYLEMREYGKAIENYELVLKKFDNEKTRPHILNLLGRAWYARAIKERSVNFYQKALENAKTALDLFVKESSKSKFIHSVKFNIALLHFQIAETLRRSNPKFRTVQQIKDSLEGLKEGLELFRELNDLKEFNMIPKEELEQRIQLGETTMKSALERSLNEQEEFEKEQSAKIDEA
Described as above. The conditions noted are these: both partners purified.

Assay [1] concerns the target T3, Ctr9 (full length, C-terminal hexahistidine tag) (S. cerevisiae, UniProt P89105 1-1077).
T3 construct: Ctr9, S. cerevisiae, full length, amplified from genomic DNA, in pET24b; source: E. coli BL21 CodonPlus(DE3)RIL, coexpressed with the other subunits; in lysate and purified as part of Paf1C; not shown: His6, C-terminal, kept
T3 sequence (looked up): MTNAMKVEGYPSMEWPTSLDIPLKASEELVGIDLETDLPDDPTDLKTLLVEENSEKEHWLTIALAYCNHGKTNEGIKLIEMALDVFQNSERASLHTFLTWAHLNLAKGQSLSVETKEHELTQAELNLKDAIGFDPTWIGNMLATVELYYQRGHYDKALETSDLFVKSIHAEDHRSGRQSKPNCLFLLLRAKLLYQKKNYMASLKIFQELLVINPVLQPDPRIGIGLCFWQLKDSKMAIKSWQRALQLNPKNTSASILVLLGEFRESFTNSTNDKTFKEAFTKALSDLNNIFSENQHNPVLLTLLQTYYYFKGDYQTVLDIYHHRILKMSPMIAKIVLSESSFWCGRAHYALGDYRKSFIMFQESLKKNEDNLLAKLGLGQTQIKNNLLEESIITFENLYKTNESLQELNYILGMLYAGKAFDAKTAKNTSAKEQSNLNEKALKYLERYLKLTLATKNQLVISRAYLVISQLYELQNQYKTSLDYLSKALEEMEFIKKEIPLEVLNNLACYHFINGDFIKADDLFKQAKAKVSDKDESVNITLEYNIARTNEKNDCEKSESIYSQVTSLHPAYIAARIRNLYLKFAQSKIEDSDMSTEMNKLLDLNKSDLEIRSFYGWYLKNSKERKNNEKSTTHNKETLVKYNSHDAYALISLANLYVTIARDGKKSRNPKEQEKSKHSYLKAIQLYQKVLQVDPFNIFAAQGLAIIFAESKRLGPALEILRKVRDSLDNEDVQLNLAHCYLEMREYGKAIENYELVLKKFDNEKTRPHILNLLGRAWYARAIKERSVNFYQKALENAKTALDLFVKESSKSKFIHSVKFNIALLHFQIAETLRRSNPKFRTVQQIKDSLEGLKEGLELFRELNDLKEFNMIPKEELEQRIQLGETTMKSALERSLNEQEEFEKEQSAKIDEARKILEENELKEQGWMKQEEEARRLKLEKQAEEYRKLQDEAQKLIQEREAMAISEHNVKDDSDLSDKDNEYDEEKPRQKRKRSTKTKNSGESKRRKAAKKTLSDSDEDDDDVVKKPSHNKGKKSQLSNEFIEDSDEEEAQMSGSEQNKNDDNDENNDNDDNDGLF
In words: co-purification after coexpression (Ni-NTA, cation exchange, SEC); subunits coexpressed in E. coli from three vectors, cells colysed; Ni-NTA (hexahistidine tag on Ctr9), HiTrap SP cation exchange, Superose 6 size exclusion; SDS-PAGE, subunits confirmed by mass spectrometry. Particulars: partners not purified.

The next assay deals with T4, Rtf1 (S. cerevisiae, UniProt P53064 1-558).
T4 construct: Rtf1, S. cerevisiae, full length, amplified from genomic DNA; source: E. coli BL21 CodonPlus(DE3)RIL, coexpressed with Cdc73; in lysate and purified as part of Paf1C
T4 sequence (P53064 whole entry): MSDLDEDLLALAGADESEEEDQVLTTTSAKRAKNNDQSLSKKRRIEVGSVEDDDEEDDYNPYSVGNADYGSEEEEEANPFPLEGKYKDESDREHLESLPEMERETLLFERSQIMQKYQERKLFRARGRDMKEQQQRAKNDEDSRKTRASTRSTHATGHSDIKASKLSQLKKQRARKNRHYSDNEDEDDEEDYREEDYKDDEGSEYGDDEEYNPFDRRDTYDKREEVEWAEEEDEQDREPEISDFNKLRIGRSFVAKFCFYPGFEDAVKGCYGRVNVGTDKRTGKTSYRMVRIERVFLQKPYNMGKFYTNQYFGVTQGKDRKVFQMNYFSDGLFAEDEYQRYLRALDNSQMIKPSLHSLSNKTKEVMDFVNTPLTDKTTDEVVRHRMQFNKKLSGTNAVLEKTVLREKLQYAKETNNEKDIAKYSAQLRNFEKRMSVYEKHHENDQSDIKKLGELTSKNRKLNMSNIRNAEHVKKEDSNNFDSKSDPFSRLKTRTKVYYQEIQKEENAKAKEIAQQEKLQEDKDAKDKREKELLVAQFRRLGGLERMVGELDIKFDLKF
In words: cross-linking; Pol II-Paf1C-TFIIS EC after SEC, 425 μg/ml, 0.5 mM BS3, 30 min, 30 °C; trypsin, Orbitrap Fusion LC-MS/MS, pLink, FDR 1%. The conditions noted are these: both partners purified.

Another assay concerns the target T5, Rpb1 (Pol II subunit) (yeast, UniProt P04050 1-1733).
T5 construct: Rpb1, largest subunit of yeast Pol II; source: part of purified Pol II
The description is as above. Particulars: both partners purified.

T1 sequence (P08518 whole entry): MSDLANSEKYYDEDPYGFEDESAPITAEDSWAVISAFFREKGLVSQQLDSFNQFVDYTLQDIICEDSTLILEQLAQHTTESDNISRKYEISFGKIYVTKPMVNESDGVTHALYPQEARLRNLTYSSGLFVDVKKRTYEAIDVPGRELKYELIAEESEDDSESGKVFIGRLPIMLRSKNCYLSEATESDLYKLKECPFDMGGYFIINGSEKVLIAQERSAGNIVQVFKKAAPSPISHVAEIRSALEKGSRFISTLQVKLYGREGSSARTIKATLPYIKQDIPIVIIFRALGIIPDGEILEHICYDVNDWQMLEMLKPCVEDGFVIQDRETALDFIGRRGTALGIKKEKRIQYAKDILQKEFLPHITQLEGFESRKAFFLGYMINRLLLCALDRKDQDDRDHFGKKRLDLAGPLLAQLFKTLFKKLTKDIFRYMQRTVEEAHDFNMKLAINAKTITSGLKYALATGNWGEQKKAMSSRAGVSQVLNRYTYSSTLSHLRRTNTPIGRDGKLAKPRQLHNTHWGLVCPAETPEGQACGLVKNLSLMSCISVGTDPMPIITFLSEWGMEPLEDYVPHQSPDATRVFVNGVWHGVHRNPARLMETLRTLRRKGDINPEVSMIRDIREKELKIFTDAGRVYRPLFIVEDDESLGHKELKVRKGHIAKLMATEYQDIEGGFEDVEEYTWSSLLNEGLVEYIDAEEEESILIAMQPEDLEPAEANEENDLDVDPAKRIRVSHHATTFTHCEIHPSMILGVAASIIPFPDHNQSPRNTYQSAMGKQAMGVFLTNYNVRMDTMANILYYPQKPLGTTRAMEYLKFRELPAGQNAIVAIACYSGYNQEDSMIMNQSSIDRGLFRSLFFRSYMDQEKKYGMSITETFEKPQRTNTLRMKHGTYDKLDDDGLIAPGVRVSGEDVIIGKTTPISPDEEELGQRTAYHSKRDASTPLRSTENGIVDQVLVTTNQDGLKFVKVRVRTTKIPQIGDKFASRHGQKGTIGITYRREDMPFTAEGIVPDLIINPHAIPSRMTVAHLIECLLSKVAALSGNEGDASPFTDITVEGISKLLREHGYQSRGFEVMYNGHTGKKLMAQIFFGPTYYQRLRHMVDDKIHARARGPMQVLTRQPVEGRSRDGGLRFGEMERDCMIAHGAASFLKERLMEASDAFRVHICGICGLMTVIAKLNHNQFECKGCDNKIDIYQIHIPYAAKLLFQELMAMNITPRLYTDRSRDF
T5 sequence (P04050 whole entry): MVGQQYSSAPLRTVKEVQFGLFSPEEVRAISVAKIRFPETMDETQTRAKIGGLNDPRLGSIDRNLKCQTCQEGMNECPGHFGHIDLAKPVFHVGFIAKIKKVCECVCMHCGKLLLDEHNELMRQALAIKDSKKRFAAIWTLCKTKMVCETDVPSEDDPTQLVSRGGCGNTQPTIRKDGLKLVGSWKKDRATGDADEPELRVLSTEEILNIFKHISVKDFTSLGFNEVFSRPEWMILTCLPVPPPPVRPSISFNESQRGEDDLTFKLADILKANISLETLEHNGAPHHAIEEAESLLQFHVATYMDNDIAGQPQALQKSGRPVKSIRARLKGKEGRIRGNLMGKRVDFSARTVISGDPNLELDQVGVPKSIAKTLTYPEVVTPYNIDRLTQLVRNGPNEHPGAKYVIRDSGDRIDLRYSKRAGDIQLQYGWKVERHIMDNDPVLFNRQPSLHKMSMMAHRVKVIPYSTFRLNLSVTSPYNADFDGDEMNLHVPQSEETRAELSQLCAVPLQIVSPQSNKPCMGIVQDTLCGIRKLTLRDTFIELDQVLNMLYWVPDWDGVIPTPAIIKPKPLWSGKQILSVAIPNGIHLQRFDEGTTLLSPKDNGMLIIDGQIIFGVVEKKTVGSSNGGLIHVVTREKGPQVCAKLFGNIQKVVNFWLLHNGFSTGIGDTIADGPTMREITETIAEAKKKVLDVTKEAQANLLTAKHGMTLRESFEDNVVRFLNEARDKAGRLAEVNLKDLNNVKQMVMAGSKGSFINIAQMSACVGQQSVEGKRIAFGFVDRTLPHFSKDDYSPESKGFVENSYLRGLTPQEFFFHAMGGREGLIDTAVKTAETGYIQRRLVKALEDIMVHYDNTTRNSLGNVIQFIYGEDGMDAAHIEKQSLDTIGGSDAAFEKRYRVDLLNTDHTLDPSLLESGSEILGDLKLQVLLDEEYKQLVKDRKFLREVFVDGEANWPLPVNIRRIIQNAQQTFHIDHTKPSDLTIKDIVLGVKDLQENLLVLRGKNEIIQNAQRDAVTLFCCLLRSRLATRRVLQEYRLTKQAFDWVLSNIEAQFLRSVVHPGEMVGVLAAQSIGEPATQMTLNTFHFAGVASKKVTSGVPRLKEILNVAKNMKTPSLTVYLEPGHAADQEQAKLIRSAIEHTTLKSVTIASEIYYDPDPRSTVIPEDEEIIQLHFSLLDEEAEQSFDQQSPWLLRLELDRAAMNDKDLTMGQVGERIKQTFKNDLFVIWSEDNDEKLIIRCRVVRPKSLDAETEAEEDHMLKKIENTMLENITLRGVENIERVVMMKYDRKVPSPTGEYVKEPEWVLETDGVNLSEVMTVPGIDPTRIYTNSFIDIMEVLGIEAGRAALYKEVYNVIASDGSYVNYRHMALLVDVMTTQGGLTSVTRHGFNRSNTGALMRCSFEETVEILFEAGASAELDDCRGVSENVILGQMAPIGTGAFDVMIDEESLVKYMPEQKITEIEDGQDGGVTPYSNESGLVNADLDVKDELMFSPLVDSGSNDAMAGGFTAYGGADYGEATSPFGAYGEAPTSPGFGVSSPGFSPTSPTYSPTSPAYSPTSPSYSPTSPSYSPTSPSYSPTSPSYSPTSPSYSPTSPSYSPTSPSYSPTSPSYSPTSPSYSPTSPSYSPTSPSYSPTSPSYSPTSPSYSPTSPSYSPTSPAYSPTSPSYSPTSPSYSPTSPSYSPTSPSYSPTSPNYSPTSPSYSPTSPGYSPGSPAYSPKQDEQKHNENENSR

B1: Rpb3 (Pol II subunit) (natural protein, yeast)
chain: MSEEGPQVKIREASKDNVDFILSNVDLAMANSLRRVMIAEIPTLAIDSVEVETNTTVLADEFIAHRLGLIPLQSMDIEQLEYSRDCFCEDHCDKCSVVLTLQAFGESESTTNVYSKDLVIVSNLMGRNIGHPIIQDKEGNGVLICKLRKGQELKLTCVAKKGIAKEHAKWGPAAAIEFEYDPWNKLKHTDYWYEQDSAKEWPQSKNCEYEDPPNEGDPFDYKAQADTFYMNVESVGSIPVDQVVVRGIDTLQKKVASILLALTQMDQDKVNFASGDNNTASNMLGSNEDVMMTGAEQDPYSNASQMGNTGSGGYDNAW
notes: Rpb3, subunit of yeast Pol II; source: part of purified Pol II
Consider B1, for which the binding result with Cdc73 is “binds”.
As to B2, the binding result (with Rpb2 (Pol II subunit); in the assay with Ctr9-ΔC913; in assay [1]) was “binds” throughout.

B3: Leo1 (natural protein, S. cerevisiae, UniProt P38439 1-464, looked up)
chain: MSSESPQDQPQKEQISNNVGVTTNSTSNEETSRSQDDNVKEVNGNDDTKEEEQEEDAELDDLFGDDNDDDDDDDVKKSETEKSDSDSDEDDEGENINHRSRHRESLGLDDDEAEEQAMYTRKFYGEDANNFSDQDETTHTFKEENVELVRHIIPSKANVNETASHNEIFYARIPNFLTIDPIPFDPPSFEAKVNERASNSASREDQLDDRLIDENTVRWRYSRDKDQHVFKESNTQIVQWSDGTYSLKVGEECTDILVNDTSNTFLTVSHDQQELIQCYEGGEIKKTLMFIPTSTNSKIHQKLSKAVIRRNQRQSKGPGTYIVSMDPEVEKKELERKQSQILRDRRRRQLKEKEKQESPDAAFETGFRKQNSPTTYGASRRNEYEEDDFLVDDDEEEEAAFDDEEDDNEEEEEEEDADEENASRLRNLKREGAAMYREEEEEEKDRSETKRRRVAVIEDDEDED
notes: Leo1, S. cerevisiae, open reading frame chemically synthesized (codon-optimised), in pCDFDuet-1; source: E. coli BL21 CodonPlus(DE3)RIL, coexpressed with the other subunits; in lysate and purified as part of Paf1C
Consider B3, for which the binding result (with Rtf1; with Rpb1 (Pol II subunit); in the assay with Rpb2 (Pol II subunit); with Ctr9-ΔC913; in assay [1]) was “binds” in each case.

B4: Rpb11 (Pol II subunit) (natural protein, yeast)
chain: MNAPDRFELFLLGEGESKLKIDPDTKAPNAVVITFEKEDHTLGNLIRAELLNDRKVLFAAYKVEHPFFARFKLRIQTTEGYDPKDALKNACNSIINKLGALKTNFETEWNLQTLAADDAF
notes: Rpb11, subunit of yeast Pol II; source: part of purified Pol II
For the molecule B4, the binding result with Cdc73 is listed as “binds”.
